± gives the uncertainty stated by the source.
B1: Ankyrin repeat and SOCS box protein 14, residues 532 to 572; numbered along this chain, A6NK59 (parent)
chain: RSLKHLCRLKIRKCMGRLHLRCPVFMSFLPLPNRLKAYVLY
B2: GA-binding protein alpha chain, residues 172 to 250; numbered along this chain, Q06546 (parent)
chain: GYRKEQERLGIPYDPIQWSTDQVLHWVVWVMKEFSMTDIDLTTLNISGRELCSLNQEDFFQRVPRGEILWSHLELLRKY

Variants of: B1
Experiment: abundance fitness (aPCA) (normalised: wild type 0, dead -1); higher = more abundant; growth selection in yeast, the domain comes from the species named
Conditions: Homo sapiens

Variant	abundance fitness
K36Y	-0.335 ± 0.23
K36V	-0.051 ± 0.058
K36E	-0.732 ± 0.16
K36W	-0.062 ± 0.057
K36N	-0.932 ± 0.3
K36I	-0.274 ± 0.18
K36P	-0.725 ± 0.11
K36R	-0.294 ± 0.055
K36C	-0.398 ± 0.13
K36A	-0.382 ± 0.075
K36M	-0.398 ± 0.12
K36Q	-0.374 ± 0.12
R12G	-0.262 ± 0.042
R12D	-0.03 ± 0.17
R12H	-0.662 ± 0.47
R12K	0.129 ± 0.065
R12W	-0.201 ± 0.068
R12M	0.083 ± 0.072
R12Q	-0.168 ± 0.065
R12S	-0.178 ± 0.1
R12T	-0.224 ± 0.085
R12L	-0.063 ± 0.072
R12C	-0.249 ± 0.099
R12V	-0.071 ± 0.075
C14L	0.431 ± 0.066

Variant	abundance fitness
C14S	-0.155 ± 0.084
C14K	-0.165 ± 0.093
C14A	0.273 ± 0.046
C14G	-0.076 ± 0.043
C14M	0.308 ± 0.067
Y41C	0.146 ± 0.071
Y41H	0.12 ± 0.07
Y41R	0.373 ± 0.056
Y41G	0.368 ± 0.14
Y41W	0.072 ± 0.095
Y41T	0.169 ± 0.17
V39A	-0.361 ± 0.066
V39G	-0.743 ± 0.069
V39S	-0.779 ± 0.13
V39I	-0.022 ± 0.24
L40E	0.031 ± 0.059
L40D	-0.113 ± 0.26
L40R	0.055 ± 0.046
L40A	-0.075 ± 0.056
L40V	-0.132 ± 0.056
L40Q	-0.192 ± 0.092
L40T	-0.247 ± 0.079
L40S	-0.092 ± 0.078
C7F	0.041 ± 0.15
C7I	0.229 ± 0.14

Variant	abundance fitness
C7W	0.099 ± 0.064
C7E	-0.37 ± 0.091
C7N	-0.414 ± 0.29
S2T	-0.196 ± 0.093
S2D	0.299 ± 0.23
S2W	-0.097 ± 0.064
S2C	-0.572 ± 0.17
S2P	-0.521 ± 0.27
F28P	-0.322 ± 0.088
F28Y	-0.01 ± 0.12
F28E	0.27 ± 0.13
F28I	0.001 ± 0.07
F28S	-0.05 ± 0.075
F28K	0.221 ± 0.046
F28T	-0.237 ± 0.061
F28M	-0.127 ± 0.097
F28L	0.128 ± 0.055
F28H	0.199 ± 0.11
F28A	-0.228 ± 0.052
F28Q	0.066 ± 0.065
R21A	-0.076 ± 0.084
R21V	0.009 ± 0.05
R21K	-0.029 ± 0.086
R21H	-0.295 ± 0.19
R21W	0.275 ± 0.057

Variant	abundance fitness
R21F	-0.102 ± 0.24
A37Q	0.083 ± 0.093
A37C	-0.091 ± 0.11
A37V	-0.482 ± 0.058
A37R	-0.002 ± 0.045
M26K	-0.026 ± 0.051
M26H	0.113 ± 0.17
M26R	-0.047 ± 0.051
M26E	0.194 ± 0.059
M26L	0.078 ± 0.051
M26G	0.072 ± 0.044
M26A	-0.08 ± 0.057
M26Y	-0.207 ± 0.23
M26C	-0.013 ± 0.19
Y38R	-0.446 ± 0.052
Y38K	-0.485 ± 0.091
Y38T	-0.478 ± 0.082
Y38P	-0.731 ± 0.12
Y38H	-0.535 ± 0.16
Y38Q	-0.45 ± 0.083
Y38E	-0.599 ± 0.081
Y38D	-0.681 ± 0.11
Y38S	-0.436 ± 0.059
Y38W	0.295 ± 0.052
N33I	-0.452 ± 0.27

Variant	abundance fitness
N33Q	0.111 ± 0.068
N33E	0.173 ± 0.049
N33Y	-0.586 ± 0.23
N33M	-0.629 ± 0.21
N33H	0.129 ± 0.084
N33S	0.105 ± 0.057
H19F	-0.097 ± 0.072
H19R	0.018 ± 0.047
H19E	-0.24 ± 0.1
H19G	0.024 ± 0.049
H19M	-0.183 ± 0.09
H19L	0.069 ± 0.051
H19V	-0.111 ± 0.055
H19P	-0.326 ± 0.062
H19K	0.141 ± 0.05
R34V	-0.447 ± 0.067
R34M	-0.714 ± 0.13
R34Y	-0.155 ± 0.26
R34Q	-0.44 ± 0.2
R34C	-0.204 ± 0.056
R34A	-0.255 ± 0.048
R34E	-0.054 ± 0.1
R8E	-0.092 ± 0.062
R8L	0.07 ± 0.063
R8S	-0.132 ± 0.089

Variant	abundance fitness
R8Y	0.329 ± 0.15
R8T	0.005 ± 0.062
R8C	0.006 ± 0.14
R8K	0.118 ± 0.072
R17A	0.371 ± 0.054
R17C	0.153 ± 0.12
R17Q	0.13 ± 0.07
R17W	0.722 ± 0.053
R17V	0.213 ± 0.05
R17N	-0.326 ± 0.15
R17P	-0.06 ± 0.082
R17L	0.17 ± 0.065
R17H	0.104 ± 0.086
R17E	0.103 ± 0.053
R17S	0.227 ± 0.051
R17T	-0.038 ± 0.063
L18K	-0.774 ± 0.21
L18Q	-0.732 ± 0.12
L18A	-0.544 ± 0.066
L18T	-0.571 ± 0.37
L18R	-0.894 ± 0.079
L18M	-0.071 ± 0.081
L18F	0.006 ± 0.22
L18N	-1.07 ± 0.31
L18G	-0.874 ± 0.084

Variant	abundance fitness
K13Y	-0.179 ± 0.2
K13Q	0.086 ± 0.088
K13G	0.045 ± 0.044
K13R	0.048 ± 0.058
K13A	0.009 ± 0.048
H5C	-0.043 ± 0.14
H5N	-0.105 ± 0.24
H5P	-0.6 ± 0.15
H5E	-0.018 ± 0.055
H5A	-0.137 ± 0.052
V24G	0.319 ± 0.044
V24M	-0.217 ± 0.13
V24W	0.233 ± 0.063
V24Y	-0.166 ± 0.22
V24T	0.176 ± 0.11
V24L	-0.081 ± 0.065
V24C	0.251 ± 0.065
V24E	0.347 ± 0.069
S27T	-0.247 ± 0.07
S27K	0.078 ± 0.13
S27Q	-0.085 ± 0.051
S27D	-0.054 ± 0.1
S27E	-0.006 ± 0.057
S27P	-0.386 ± 0.071
S27L	-1.09 ± 0.14

Variant	abundance fitness
S27Y	-1.05 ± 0.26
K10D	-0.319 ± 0.17
K10M	0.439 ± 0.078
K10R	-0.393 ± 0.048
K10L	0.445 ± 0.051
K10G	-0.066 ± 0.05
K10Y	0.168 ± 0.11
K10E	-0.208 ± 0.053
K10Q	-0.107 ± 0.065
F25A	-0.178 ± 0.052
F25K	0.089 ± 0.076
F25G	-0.048 ± 0.045
F25S	-0.095 ± 0.054
F25P	0.074 ± 0.076
F25R	-0.116 ± 0.051
F25C	-0.449 ± 0.21
F25L	0.19 ± 0.067
C22I	0.178 ± 0.091
C22H	-0.052 ± 0.088
C22M	0.162 ± 0.071
C22F	0.057 ± 0.12
C22K	-0.519 ± 0.12
C22E	-0.455 ± 0.069
C22P	-0.086 ± 0.069
C22S	-0.247 ± 0.059

Variant	abundance fitness
C22G	-0.339 ± 0.055
C22L	0.243 ± 0.052
C22W	0.218 ± 0.06
L6R	0.154 ± 0.048
L6K	0.027 ± 0.33
L6Y	0.083 ± 0.23
L6P	-0.493 ± 0.098
L6S	0.155 ± 0.08
L6C	0.204 ± 0.13
L6D	0.192 ± 0.1
L6W	0.394 ± 0.061
L6A	0.122 ± 0.052
L3H	-0.878 ± 0.29
L3Q	-0.655 ± 0.09
L3V	-0.547 ± 0.075
L3E	-0.142 ± 0.058
L3G	-0.686 ± 0.055
L3N	-0.529 ± 0.12
L3D	-0.331 ± 0.1
L3C	-0.517 ± 0.084
L3T	-0.668 ± 0.092
M15Y	-0.701 ± 0.33
M15D	-1 ± 0.15
M15C	-0.319 ± 0.091
M15R	-0.6 ± 0.082

Variant	abundance fitness
M15P	-0.671 ± 0.1
M15L	0.202 ± 0.055
M15S	-0.612 ± 0.13
M15A	-0.204 ± 0.048
M15E	-0.738 ± 0.088
L9Q	0.156 ± 0.089
L9G	-0.084 ± 0.049
L9A	0.003 ± 0.049
L9H	-0.089 ± 0.072
L9P	-0.866 ± 0.18
L9T	0.118 ± 0.089
L9K	-0.234 ± 0.088
L9I	0.08 ± 0.13
L9E	0.308 ± 0.076
P32M	0.212 ± 0.072
P32F	0.465 ± 0.062
P32K	-0.179 ± 0.07
P32D	-0.998 ± 0.29
P32C	0.239 ± 0.062
P32L	0.403 ± 0.047
P32S	-0.363 ± 0.062
P32I	-0.013 ± 0.12
P32Y	0.221 ± 0.14
L35T	-0.966 ± 0.17
L35K	-1.29 ± 0.47

Variant	abundance fitness
L35H	-0.955 ± 0.35
L35I	-0.18 ± 0.11
L35R	-1.28 ± 0.12
L35N	-0.729 ± 0.47
L35E	-1.12 ± 0.26
L35C	-0.135 ± 0.21
L31R	-0.338 ± 0.05
L31Y	-0.795 ± 0.14
L31Q	-0.656 ± 0.11
L31T	-0.439 ± 0.11
L31A	-0.272 ± 0.054
L31S	-0.113 ± 0.06
L31G	-0.28 ± 0.052
L31I	-0.006 ± 0.072
G16H	0.024 ± 0.077
G16F	-0.152 ± 0.094
G16E	0.355 ± 0.064
G16L	0.102 ± 0.052
G16Q	0.356 ± 0.05
G16W	-0.058 ± 0.057
G16P	-0.105 ± 0.061
G16C	-0.269 ± 0.065
K4Y	0.34 ± 0.2
K4A	0.041 ± 0.053
K4L	0.157 ± 0.062

Variant	abundance fitness
K4E	-0.596 ± 0.072
K4T	0.031 ± 0.061
K4W	0.051 ± 0.058
K4R	-0.155 ± 0.05
L29I	-0.037 ± 0.12
L29E	-0.672 ± 0.093
L29F	-0.473 ± 0.11
L29V	-0.353 ± 0.057
L29T	-0.455 ± 0.099
P23T	0.336 ± 0.073
P23L	0.494 ± 0.059
P23S	0.273 ± 0.058
P23K	0.524 ± 0.066
P23Y	0.283 ± 0.08
P23Q	0.407 ± 0.069
P23A	0.321 ± 0.059
R1V	-0.1 ± 0.14
R1W	0.045 ± 0.074
R1S	-0.39 ± 0.091
R1N	0.093 ± 0.13
R1G	-0.042 ± 0.047
R1F	0.243 ± 0.065
R1E	-0.033 ± 0.088
I11W	0.023 ± 0.056
I11C	-1.05 ± 0.13

Variant	abundance fitness
I11G	-0.68 ± 0.073
I11Q	-0.992 ± 0.13
I11T	-0.722 ± 0.18
L20E	0.249 ± 0.069
L20G	-0.089 ± 0.06
L20I	-0.308 ± 0.28
L20W	-0.285 ± 0.07
L20M	-0.098 ± 0.1
L20C	-0.296 ± 0.12
L20D	0.3 ± 0.39
P30T	0.313 ± 0.06
P30G	0.337 ± 0.047
P30C	0.197 ± 0.053
P30M	0.26 ± 0.068
P30S	0.424 ± 0.043
P30E	0.4 ± 0.053
P30V	-0.009 ± 0.047

Variants of: B2
Experiment: as above
Conditions: Homo sapiens

Variant	abundance fitness
Y79Q	0.006 ± 0.097
Y79L	-0.032 ± 0.052
Y79W	-0.09 ± 0.055
Y79E	0.01 ± 0.11
Y79D	0.06 ± 0.15
Y79P	0.009 ± 0.042
Y79T	-0.148 ± 0.084
Y79N	0.107 ± 0.1
Y79K	0.146 ± 0.13
Y79G	0.031 ± 0.067
Y79H	0.002 ± 0.078
Y79F	0.062 ± 0.095
Y79S	0.038 ± 0.04
Y79I	-0.09 ± 0.11
Y79V	-0.096 ± 0.065
Y79R	-0.054 ± 0.049
Y79M	-0.299 ± 0.15
